The values below are quoted from earlier work in patent publication US20050181485A1, “Cellulose digesting enzyme gene and utilization of the gene” (priority 2002, published 2005).

Read-outs that look alike come from different tables or passages of the source.

The conditions of the data set: known cellobiose dehydrogenases.

B1: Phanerochaete chrysosporium: known cellobiose dehydrogenase reported by Henriksson et al. (protein, UniProt Q01738 19-773, looked up)
Cellobiose dehydrogenase: QSASQFTDPTTGFQFTGITDPVHDVTYGFVFPPLATSGAQSTEFIGEVVAPIASKWIGIALGGAMNNDLLLVAWANGNQIVSSTRWATGYVQPTAYTGTATLTTLPETTINSTHWKWVFRCQGCTEWNNGGGIDVTSQGVLAWAFSNVAVDDPSDPQSTFSEHTDFGFFGIDYSTAHSANYQNYLNGDSGNPTTTSTKPTSTSSSVTTGPTVSATPYDYIIVGAGPGGIIAADRLSEAGKKVLLLERGGPSTKQTGGTYVAPWATSSGLTKFDIPGLFESLFTDSNPFWWCKDITVFAGCLVGGGTSVNGALYWYPNDGDFSSSVGWPSSWTNHAPYTSKLSSRLPSTDHPSTDGQRYLEQSFNVVSQLLKGQGYNQATINDNPNYKDHVFGYSAFDFLNGKRAGPVATYLQTALARPNFTFKTNVMVSNVVRNGSQILGVQTNDPTLGPNGFIPVTPKGRVILSAGAFGTSRILFQSGIGPTDMIQTVQSNPTAAAALPPQNQWINLPVGMNAQDNPSINLVFTHPSIDAYENWADVWSNPRPADAAQYLANQSGVFAGASPKLNFWRAYSGSDGFTRYAQGTVRPGAASVNSSLPYNASQIFTITVYLSTGIQSRGRIGIDAALRGTVLTPPWLVNPVDKTVLLQALHDVVSNIGSIPGLTMITPDVTQTLEEYVDAYDPATMNSNHWVSSTTIGSSPQSAVVDSNVKVFGTNNLFIVDAGIIPHLPTGNPQGTLMSAAEQAAAKILALAGGP
Take B1: the Isoelectric point is on record as 4.2, the “Optimal pH” value is given as 5.0 and the Optimal temperature is 50 °C. Further, the Isoelectric point result (listed as cellobiose dehydrogenase derived from Phanerochaete chrysosporium) was “about 4.2”.
